± gives the standard error. Fewer inactive variants are shown than the library holds.
B1: glmS ribozyme (parent)
chain: AUAAAAGCGCCAGAACUACAGAAAUGUAGUUGACGAGGAGGAGGUUUAUCGAAUUUUCGGCGGAUGCCUCCAAA

Variants of: B1
Experiment: self-cleavage kobs at 2500 uM GlcN6P; higher = faster cleavage; RNA array
Details: with glucosamine-6-phosphate
Outline: (§1)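 Tracking of barcoded ribozyme variants used a hybridised Cy3 probe at 37 °C, after in situ transcription by E. coli RNA polymerase on sequenced MiSeq chips. The flowed solution held 40 μM to 10 mM glucosamine-6-phosphate in HEPES/KCl/Mg(OAc)2 buffer, and imaging ran over ~14 h. kobs was taken from exponential decay fits of normalised per-tile medians, and kcat and KM from weighted Michaelis–Menten fits.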

| Variant | self-cleavage kobs at 2500 uM GlcN6P |
| --- | --- |
| A12C A15C A39G A64G C70U | < 1e-05 s⁻¹ |
| U45C C61U C70G | < 1e-05 s⁻¹ |
| C16U U55G C67G | 0.000952 ± 0.00032 s⁻¹ |
| C16U C34A G59C U69A | < 1e-05 s⁻¹ |
| A36G U65C C68G | < 1e-05 s⁻¹ |
| C8A G32A A33U U55A | < 1e-05 s⁻¹ |
| C50G C58G G62C | 0.000553 ± 0.00021 s⁻¹ |
| C11U A42G U54G G66A | 0.000265 ± 7.1e-05 s⁻¹ |
| U46G A48G U57G G62U | < 1e-05 s⁻¹ |
| G13A G44C U46A A53G | < 1e-05 s⁻¹ |
| A6G U54C G63C | < 1e-05 s⁻¹ |
| C10A A12U G37U U45A | < 1e-05 s⁻¹ |
| A6G G29C A33C U47G | < 1e-05 s⁻¹ |
| G32U A42C U54A | < 1e-05 s⁻¹ |
| G7C C10G A48C | < 1e-05 s⁻¹ |
| C58G G59C C61A G62A C71A | < 1e-05 s⁻¹ |
| C16U G35U G38U C50A | < 1e-05 s⁻¹ |
| C11G A15G G59U | 9.06e-05 ± 3.1e-05 s⁻¹ |
| G9U G35C A42U | < 1e-05 s⁻¹ |
| C11G A42C G43A C70U | < 1e-05 s⁻¹ |
| C11U C16G G32A A42U C70U | < 1e-05 s⁻¹ |

| Variant | self-cleavage kobs at 2500 uM GlcN6P |
| --- | --- |
| C10U A33G G35U U47A G59C | < 1e-05 s⁻¹ |
| U30G A33U G35C U46C | < 1e-05 s⁻¹ |
| A6C G13A G38U U57G A64U | < 1e-05 s⁻¹ |
| U30C G38C U46C | < 1e-05 s⁻¹ |
| G35A A52U U54A C61U C67G | < 1e-05 s⁻¹ |
| C16G G51U U57G | < 1e-05 s⁻¹ |
| C34A G43A C50G U54C | < 1e-05 s⁻¹ |
| G29C G35U G40U | < 1e-05 s⁻¹ |
| G13C C61A | < 1e-05 s⁻¹ |
| A15U G51C C71U | < 1e-05 s⁻¹ |
| U30C A36U A48C | < 1e-05 s⁻¹ |
| G7C A15C G32U C58U C61U | < 1e-05 s⁻¹ |
| C11U G40A C71U | 0.000785 ± 0.00023 s⁻¹ |
| U65A C67G C71U | 3.53e-05 ± 1.5e-05 s⁻¹ |
| C16U U30A U65A | 8.89e-05 ± 1.9e-05 s⁻¹ |
| G9U G29A A42G G60C | < 1e-05 s⁻¹ |
| G38A C50G U69G | 6.3e-05 ± 1.7e-05 s⁻¹ |
| G37U G38U A39C | < 1e-05 s⁻¹ |
| A36C U49A U56A | < 1e-05 s⁻¹ |
| A12U A15U C50G C70G | 0.000215 ± 5.7e-05 s⁻¹ |
| A12G U46G C71U | 9.1e-05 ± 2.1e-05 s⁻¹ |

| Variant | self-cleavage kobs at 2500 uM GlcN6P |
| --- | --- |
| A33G A42U U47A A53G | < 1e-05 s⁻¹ |
| G7U G35U G44U | < 1e-05 s⁻¹ |
| U54G C68U C70U | 0.00037 ± 6.8e-05 s⁻¹ |
| C8U G37A C50G A64G C71A | 0.000244 ± 6.7e-05 s⁻¹ |
| G13A A15C C50G C70A | 0.000129 ± 2.5e-05 s⁻¹ |
| U46C C50U C61U | < 1e-05 s⁻¹ |
| G9U G29U A53G | < 1e-05 s⁻¹ |
| G35U U47A U55C | < 1e-05 s⁻¹ |
| G41U U45G U49A | < 1e-05 s⁻¹ |
| G9A G13C C34A G40C C50U C71G | < 1e-05 s⁻¹ |
| G41A U47C G51C | < 1e-05 s⁻¹ |
| C10G C50G U55A | 6.66e-05 ± 2.3e-05 s⁻¹ |
| U31G G32U U45A C71U | 0.000679 ± 0.00029 s⁻¹ |
| C10U A12U G63C C70A C71A | 5.29e-05 ± 1.7e-05 s⁻¹ |
| U31C G32U U54C C58A | 0.000137 ± 4.2e-05 s⁻¹ |
| A36U U65A C68U | < 1e-05 s⁻¹ |
| G7C A36G U55C | < 1e-05 s⁻¹ |
| A6U C11G G44C C68G | < 1e-05 s⁻¹ |
| U47G U54G U57C | 0.00011 ± 2.6e-05 s⁻¹ |
| G9U A12C A33G A53U | < 1e-05 s⁻¹ |
| U31G G38C G43U U47A A48C | < 1e-05 s⁻¹ |

| Variant | self-cleavage kobs at 2500 uM GlcN6P |
| --- | --- |
| G37C U55G G63A C71G | < 1e-05 s⁻¹ |
| A14G U30C U47A | 0.000323 ± 8.4e-05 s⁻¹ |
| A15C G60A G62U | < 1e-05 s⁻¹ |
| G32U U55A C70U | 0.000404 ± 8e-05 s⁻¹ |
| A39C A53U C67A | 6.25e-05 ± 1.6e-05 s⁻¹ |
| G7C G9U G60A | < 1e-05 s⁻¹ |
| C10G C34G G51U | < 1e-05 s⁻¹ |
| G43U U56C C67G | < 1e-05 s⁻¹ |
| G29C G40U U46C C67A | < 1e-05 s⁻¹ |
| A33C G35U A42G A48G | < 1e-05 s⁻¹ |
| C8U C11A G32A U56G | < 1e-05 s⁻¹ |
| A14C A15G U46C C61G | < 1e-05 s⁻¹ |
| A33U G35C G62A | < 1e-05 s⁻¹ |
| G7U G32C C34U | < 1e-05 s⁻¹ |
| C11A A33C A36G U46G G51A G62A | < 1e-05 s⁻¹ |
| A12U U31C G44U C67A | 0.00303 ± 0.001 s⁻¹ |
| C11A C34A G60U | < 1e-05 s⁻¹ |
| A15U U31A C70A | 6.54e-05 ± 2.7e-05 s⁻¹ |
| G43C U45A C68G | 0.00405 ± 0.0014 s⁻¹ |
| A14U G44A C50A | < 1e-05 s⁻¹ |
| A39C G60C C67G | < 1e-05 s⁻¹ |

Variants of: B1
Experiment: self-cleavage kobs at 10000 uM GlcN6P; higher = faster cleavage; RNA array
Details: with glucosamine-6-phosphate
Outline: as §1

| Variant | self-cleavage kobs at 10000 uM GlcN6P |
| --- | --- |
| G7C A15C G32U C58U C61U | < 1e-05 s⁻¹ |
| G37C U55G G63A C71G | < 1e-05 s⁻¹ |
| A14G U30C U47A | 0.000556 ± 8e-05 s⁻¹ |

Reference: the supplement of paper PMC7125110
